Reference: article PMC6421407, “Activation of GCN2 by the ribosomal P-stalk” (Proceedings of the National Academy of Sciences of the …, 2019)
Blank lines part the entries; values can stand above or below the molecule they belong to.

Key:
[1] = target: human general control nonderepressible 2 (GCN2), full-length, StrepII-tagged (human) (UniProt Q9P2K8)
[2] = target: the molecule itself; assay: SEC-MALS; purified GCN2 in solution; 392 kDa measured against 384 kDa theoretical for a homodimer

EC50 of stimulation of eIF2α phosphorylation by GCN2, titration of ribosomes [1]: 25 nM
fold stimulation of eIF2α phosphorylation by GCN2, titration of ribosomes [1]: 20 fold
Molecule: ribosomes purified from rabbit reticulocyte lysate (from UniProt G1SPK4 1-318; P19943 1-44; G1TT27 1-257) (complex)

B1: human general control nonderepressible 2 (GCN2), full-length, StrepII-tagged (enzyme, UniProt Q9P2K8 1-1649, looked up)
chain: MAGGRGAPGRGRDEPPESYPQRQDHELQALEAIYGADFQDLRPDACGPVKEPPEINLVLYPQGLTGEEVYVKVDLRVKCPPTYPDVVPEIELKNAKGLSNESVNLLKSRLEELAKKHCGEVMIFELAYHVQSFLSEHNKPPPKSFHEEMLERRAQEEQQRLLEAKRKEEQEQREILHEIQRRKEEIKEEKKRKEMAKQERLEIASLSNQDHTSKKDPGGHRTAAILHGGSPDFVGNGKHRANSSGRSRRERQYSVCNSEDSPGSCEILYFNMGSPDQLMVHKGKCIGSDEQLGKLVYNALETATGGFVLLYEWVLQWQKKMGPFLTSQEKEKIDKCKKQIQGTETEFNSLVKLSHPNVVRYLAMNLKEQDDSIVVDILVEHISGVSLAAHLSHSGPIPVHQLRRYTAQLLSGLDYLHSNSVVHKVLSASNVLVDAEGTVKITDYSISKRLADICKEDVFEQTRVRFSDNALPYKTGKKGDVWRLGLLLLSLSQGQECGEYPVTIPSDLPADFQDFLKKCVCLDDKERWSPQQLLKHSFINPQPKMPLVEQSPEDSEGQDYVETVIPSNRLPSAAFFSETQRQFSRYFIEFEELQLLGKGAFGAVIKVQNKLDGCCYAVKRIPINPASRQFRRIKGEVTLLSRLHHENIVRYYNAWIERHERPAGPGTPPPDSGPLAKDDRAARGQPASDTDGLDSVEAAAPPPILSSSVEWSTSGERSASARFPATGPGSSDDEDDDEDEHGGVFSQSFLPASDSESDIIFDNEDENSKSQNQDEDCNEKNGCHESEPSVTTEAVHYLYIQMEYCEKSTLRDTIDQGLYRDTVRLWRLFREILDGLAYIHEKGMIHRDLKPVNIFLDSDDHVKIGDFGLATDHLAFSADSKQDDQTGDLIKSDPSGHLTGMVGTALYVSPEVQGSTKSAYNQKVDLFSLGIIFFEMSYHPMVTASERIFVLNQLRDPTSPKFPEDFDDGEHAKQKSVISWLLNHDPAKRPTATELLKSELLPPPQMEESELHEVLHHTLTNVDGKAYRTMMAQIFSQRISPAIDYTYDSDILKGNFSIRTAKMQQHVCETIIRIFKRHGAVQLCTPLLLPRNRQIYEHNEAALFMDHSGMLVMLPFDLRIPFARYVARNNILNLKRYCIERVFRPRKLDRFHPKELLECAFDIVTSTTNSFLPTAEIIYTIYEIIQEFPALQERNYSIYLNHTMLLKAILLHCGIPEDKLSQVYIILYDAVTEKLTRREVEAKFCNLSLSSNSLCRLYKFIEQKGDLQDLMPTINSLIKQKTGIAQLVKYGLKDLEEVVGLLKKLGIKLQVLINLGLVYKVQQHNGIIFQFVAFIKRRQRAVPEILAAGGRYDLLIPQFRGPQALGPVPTAIGVSIAIDKISAAVLNMEESVTISSCDLLVVSVGQMSMSRAINLTQKLWTAGITAEIMYDWSQSQEELQEYCRHHEITYVALVSDKEGSHVKVKSFEKERQTEKRVLETELVDHVLQKLRTKVTDERNGREASDNLAVQNLKGSFSNASGLFEIHGATVVPIVSVLAPEKLSASTRRRYETQVQTRLQTSLANLHQKSSEIEILAVDLPKETILQFLSLEWDADEQAFNTTVKQLLSRLPKQRYLKLVCDEIYNIKVEKKVSVLFLYSYRDDYYRILF
notes: General control nonderepressible 2 (GCN2), human, full length; Homodimer by SEC-MALS (392 kDa measured, 384 kDa theoretical); also called construct A; full-length GCN2
stoichiometry N [2]: 2
